According to paper PMC6120219:
Numbering of substitutions follows the chain as printed. Names and notes keep the numbering of the source.

Target: T1, human TRAP1 (TNF receptor-associated protein 1), full-length WT without mitochondrial signal sequence (human) (UniProt Q12931)
T1 sequence: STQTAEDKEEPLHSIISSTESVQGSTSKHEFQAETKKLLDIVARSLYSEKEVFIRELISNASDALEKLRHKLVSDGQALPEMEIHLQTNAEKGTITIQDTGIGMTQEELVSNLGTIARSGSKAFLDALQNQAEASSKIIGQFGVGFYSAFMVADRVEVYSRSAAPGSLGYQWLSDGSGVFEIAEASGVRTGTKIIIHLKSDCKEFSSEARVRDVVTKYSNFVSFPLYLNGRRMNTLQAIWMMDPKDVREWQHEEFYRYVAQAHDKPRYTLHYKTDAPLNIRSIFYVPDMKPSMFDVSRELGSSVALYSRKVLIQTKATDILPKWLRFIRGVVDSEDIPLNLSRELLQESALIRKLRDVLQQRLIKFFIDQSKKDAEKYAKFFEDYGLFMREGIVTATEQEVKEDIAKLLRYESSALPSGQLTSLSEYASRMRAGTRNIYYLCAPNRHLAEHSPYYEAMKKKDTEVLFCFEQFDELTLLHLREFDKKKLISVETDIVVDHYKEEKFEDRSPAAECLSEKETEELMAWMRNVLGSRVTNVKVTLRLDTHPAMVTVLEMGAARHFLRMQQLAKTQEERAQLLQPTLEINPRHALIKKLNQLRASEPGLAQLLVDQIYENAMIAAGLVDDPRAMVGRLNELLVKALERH

- Vmax of ATPase activity of the WT:D158N heterodimer mixture, ATP titration with CaCl2 (μM ATP min^−1/μM ATPase): 2.31
- Vmax of ATPase activity of the WT:D158N heterodimer mixture, ATP titration with MgCl2 (μM ATP min^−1/μM ATPase): 3.77
B1: human TRAP1 D158N point mutant (natural protein)
chain: T1 sequence with D99N
